Reference: US20190225692A1 (JUNO THERAPEUTICS, published 2019)

target: T1, HLA-A2/E6 (29-38) tetramer (human; HPV 16); assay: tetramer flow cytometry; transfected 1:1 CD4+ and CD4+/CD8+ Jurkat-derived cells;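 also: cell mixtures transiently transfected with TCR-encoding plasmids, analysed by flow cytometry 48 h later after HLA-A*02:01 E6 tetramer staining combined with anti-CD8 antibody co-staining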
T1 construct: also called E6(29-38) peptide-MHC tetramer; E6(29-38)-loaded tetramer
Description: (§1) For transfection, the CD4+ and CD4+/CD8+ cell mixtures were transiently transfected with TCR-encoding plasmids and 48 hours after transfection, cells were assessed by flow cytometry for (1) binding of the target peptide in the context of an MHC molecule (HLA:A02:01) by staining with an E6(29-38) peptide- or an E7(11-19) peptide-MHC tetramer reagent, and/or (2) CD8+ independent binding of the target by co-staining the tetramer-labeled cells with an anti-CD8 antibody.

Row | Binder | % cells in E6 tet+/CD8+ quadrant [%] | % cells in E6 tet+/CD8- quadrant [%] | % cells in E6 tet-/CD8+ quadrant [%] | % cells in E6 tet-/CD8- quadrant [%]
1 | TCR 16 (codon optimized, cysteine modified version) (TCR, V domains shown) V domain 1: KQEVTQIPAALSVPEGENLVLNCSFTDSAIYNLQWFRQDPGKGLTSLLLIQSSQREQTSGRLNASLDKSSGRSTLYIAASQPGDSATYLCAVRPANNNDMRFGAGTRLTVKP V domain 2: DVKVTQSSRYLVKRTGEKVFLECVQDMDHENMFWYRQDPGLGLRLIYFSYDVKMKEKGDIPEGYSVSREKKERFSLILESASTNQTSMYLCASSLWGRSNQPQHFGDGTRLSILE | 35.6 | 28.2 | 9.51 | 26.7
2 | TCR 25 (codon optimized, cysteine modified version) (TCR, V domains shown) V domain 1: AQKITQTQPGMFVQEKEAVTLDCTYDTSDQSYGLFWYKQPSSGEMIFLIYQGSYDEQNATEGRYSLNFQKARKSANLVISASQLGDSAMYFCAMREGSLTGGGNKLTFGTGTQLKVEL V domain 2: DVKVTQSSRYLVKRTGEKVFLECVQDMDHENMFWYRQDPGLGLRLIYFSYDVKMKEKGDIPEGYSVSREKKERFSLILESASTNQTSMYLCASSLWGQSNQPQHFGDGTRLSILE | 34 | 14.7 | 10.2 | 41.1
3 | TCR 19 (codon optimized, cysteine modified version) (TCR, V domains shown) V domain 1: AQKITQTQPGMFVQEKEAVTLDCTYDTSDQSYGLFWYKQPSSGEMIFLIYQGSYDEQNATEGRYSLNFQKARKSANLVISASQLGDSAMYFCAMRENTGTASKLTFGTGTRLQVTL V domain 2: DVKVTQSSRYLVKRTGEKVFLECVQDMDHENMFWYRQDPGLGLRLIYFSYDVKMKEKGDIPEGYSVSREKKERFSLILESASTNQTSMYLCASSSWGQSTGEQYFGPGTRLTVTE | 35.5 | 20.8 | 7.71 | 36
4 | TCR 29 (codon optimized, cysteine modified version) (TCR, V domains shown) V domain 1: AQKITQTQPGMFVQEKEAVTLDCTYDTSDQSYGLFWYKQPSSGEMIFLIYQGSYDEQNATEGRYSLNFQKARKSANLVISASQLGDSAMYFCAMRLNTGTASKLTFGTGTRLQVTL V domain 2: DGGITQSPKYLFRKEGQNVTLSCEQNLNHDAMYWYRQDPGQGLRLIYYSQIVNDFQKGDIAEGYSVSREKKESFPLTVTSAQKNPTAFYLCASSPWGRATNEQFFGPGTRLTVLE | 35.6 | 44.5 | 2 | 17.9
5 | TCR 28 (codon optimized, cysteine modified version) (TCR, V domains shown) V domain 1: RKEVEQDPGPFNVPEGATVAFNCTYSNSASQSFFWYRQDCRKEPKLLMSVYSSGNEDGRFTAQLNRASQYISLLIRDSKLSDSATYLCVVRGGGTSYGKLTFGQGTILTVHP V domain 2: DVKVTQSSRYLVKRTGEKVFLECVQDMDHENMFWYRQDPGLGLRLIYFSYDVKMKEKGDIPEGYSVSREKKERFSLILESASTNQTSMYLCASSLWGRSSGNTIYFGEGSWLTVVE | 13.1 | 0.15 | 31.4 | 55.4
6 | TCR 15 (codon optimized, cysteine modified version) (TCR, V domains shown) V domain 1: AQKITQTQPGMFVQEKEAVTLDCTYDTSDQSYGLFWYKQPSSGEMIFLIYQGSYDEQNATEGRYSLNFQKARKSANLVISASQLGDSAMYFCAMKPGGYNKLIFGAGTRLAVHP V domain 2: DAGVIQSPRHEVTEMGQEVTLRCKPISGHNSLFWYRQTMMRGLELLIYFNNNVPIDDSGMPEDRFSAKMPNASFSTLKIQPSEPRDSAVYFCASSLVGRSRTEQYFGPGTRLTVTE | 21.4 | 40.2 | 13.6 | 24.8
7 | TCR 26 (codon optimized, cysteine modified version) (TCR, V domains shown) V domain 1: AQKITQTQPGMFVQEKEAVTLDCTYDTSDQSYGLFWYKQPSSGEMIFLIYQGSYDEQNATEGRYSLNFQKARKSANLVISASQLGDSAMYFCAMRDARNNDMRFGAGTRLTVKP V domain 2: NAGVTQTPKFRVLKTGQSMTLLCAQDMNHEYMYWYRQDPGMGLRLIHYSVGEGTTAKGEVPDGYNVSRLKKQNFLLGLESAAPSQTSVYFCASSYYASGRNYEQYFGPGTRLTVTE | 42.3 | 47.4 | 1.58 | 8.73
8 | TCR 20 (codon optimized, cysteine modified version) (TCR, V domains shown) V domain 1: AQKVTQAQTEISVVEKEDVTLDCVYETRDTTYYLFWYKQPPSGELVFLIRRNSFDEQNEISGRYSWNFQKSTSSFNFTITASQVVDSAVYFCALWTGANNLFFGTGTRLTVIP V domain 2: GAVVSQHPSRVICKSGTSVKIECRSLDFQATTMFWYRQFPKQSLMLMATSNEGSKATYEQGVEKDKFLINHASLTLSTLTVTSAHPEDSSFYICSASSLARRSYEQYFGPGTRLTVTE | 38.2 | 34.1 | 5.17 | 22.6

target: T2, HLA-A2/E7 (11-19) tetramer (human; HPV 16); assay: as above;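 also: cells transiently transfected with TCR plasmids, stained 48 h later with HLA-A*02:01 peptide-MHC tetramer plus anti-CD8 antibody, read by flow cytometry to assess CD8-independent tetramer binding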
T2 construct: also called E7(11-19) peptide-MHC tetramer; E7 (11-19)-loaded tetramer
Description: as §1

Row | Binder | % cells in E7 tet+/CD8+ quadrant [%] | % cells in E7 tet+/CD8- quadrant [%] | % cells in E7 tet-/CD8+ quadrant [%] | % cells in E7 tet-/CD8- quadrant [%]
9 | TCR 45 (codon optimized, cysteine modified version) (TCR, V domains shown) V domain 1: GQQVMQIPQYQHVQEGEDFTTYCNSSTTLSNIQWYKQRPGGHPVFLIQLVKSGEVKKQKRLTFQFGEAKKNSSLHITATQTTDVGTYFCAGSSGAGSYQLTFGKGTKLSVIP V domain 2: GAGVSQSPSNKVTEKGKDVELRCDPISGHTALYWYRQRLGQGLEFLIYFQGNSAPDKSGLPSDRFSAERTGESVSTLTIQRTQQEDSAVYLCASSLYLGTTGELFFGEGSRLTVLE | 22.4 | 16.9 | 19.5 | 41.3
10 | TCR 53 (codon optimized, cysteine modified version) (TCR, V domains shown) V domain 1: AQSVAQPEDQVNVAEGNPLTVKCTYSVSGNPYLFWYVQYPNRGLQFLLKYITGDNLVKGSYGFEAEFNKSQTSFHLKKPSALVSDSALYFCAVRDFGSGTYKYIFG V domain 2: GAGVSQSPRYKVTKRGQDVALRCDPISGHVSLYWYRQALGQGPEFLTYFNYEAQQDKSGLPNDRFSAERPEGSISTLTIQRTEQRDSAMYRCASSGSGTSGYNEQFFGPGTRLTVLE | 3.35 | 0.43 | 28.7 | 67.5
11 | TCR 50 (codon optimized, cysteine modified version) (TCR, V domains shown) V domain 1: GEDVEQSLFLSVREGDSSVINCTYTDSSSTYLYWYKQEPGAGLQLLTYIFSNMDMKQDQRLTVLLNKKDKHLSLRIADTQTGDSAIYFCAESPPGTYKYIFGTGTRLKVLA V domain 2: DSGVTQTPKHLITATGQRVTLRCSPRSGDLSVYWYQQSLDQGLQFLIHYYNGEERAKGNILERFSAQQFPDLHSELNLSSLELGDSALYFCASSATRDAYGYTFGSGTRLTVVE | 3.28 | 0.25 | 30.7 | 65.8
12 | TCR 55 (codon optimized, cysteine modified version) (TCR) TCR alpha: GEDVEQSLFLSVREGDSSVINCTYTDSSSTYLYWYKQEPGAGLQLLTYIFSNMDMKQDQRLTVLLNKKDKHLSLRIADTQTGDSAIYFCAVPSGATNKLIFGTGTLLAVQPNIQNPDPAVYQLRDSKSSDKSVCLFTDFDSQTNVSQSKDSDVYITDKCVLDMRSMDFKSNSAVAWSNKSDFACANAFNNSIIPEDTFFPSPESSCDVKLVEKSFETDTNLNFQNLSVIGFRILLLKVAGFNLLMTLRLWSS TCR beta: EPEVTQTPSHQVTQMGQEVILRCVPISNHLYFYWYRQILGQKVEFLVSFYNNEISEKSEIFDDQFSVERPDGSNFTLKIRSTKLEDSAMYFCASTTRSSYEQYFGPGTRLTVTEDLKNVFPPEVAVFEPSEAEISHTQKATLVCLATGFYPDHVELSWWVNGKEVHSGVCTDPQPLKEQPALNDSRYCLSSRLRVSATFWQNPRNHFRCQVQFYGLSENDEWTQDRAKPVTQIVSAEAWGRADCGFTSESYQQGVLSATILYEILLGKATLYAVLVSALVLMAMVKRKDSRG | 1.45 | 0.28 | 50.4 | 47.9
13 | TCR 47 (codon optimized, cysteine modified version) (TCR, V domains shown) V domain 1: QKEVEQNSGPLSVPEGAIASLNCTYSDRGSQSFFWYRQYSGKSPELIMFIYSNGDKEDGRFTAQLNKASQYVSLLIRDSQPSDSATYLCAVNLLSGSARQLTFGSGTQLTVLP V domain 2: EPEVTQTPSHQVTQMGQEVILRCVPISNHLYFYWYRQILGQKVEFLVSFYNNEISEKSEIFDDQFSVERPDGSNFTLKIRSTKLEDSAMYFCAMTGRTTYEQYFGPGTRLTVTE | 1.98 | 0.71 | 40.6 | 56.7
14 | TCR 48 (codon optimized, cysteine modified version) (TCR, V domains shown) V domain 1: QKEVEQDPGPLSVPEGAIVSLNCTYSNSAFQYFMWYRQYSRKGPELLMYTYSSGNKEDGRFTAQVDKSSKYISLFIRDSQPSDSATYLCAMRIQGAQKLVFGQGTRLTINP V domain 2: EPEVTQTPSHQVTQMGQEVILRCVPISNHLYFYWYRQILGQKVEFLVSFYNNEISEKSEIFDDQFSVERPDGSNFTLKIRSTKLEDSAMYFCASTGRVSYEQYFGPGTRLTVTE | 5.36 | 1.29 | 37 | 56.4
15 | TCR 51 (codon optimized, cysteine modified version) (TCR, V domains shown) V domain 1: QKEVEQNSGPLSVPEGAIASLNCTYSDRGSQSFFWYRQYSGKSPELIMSIYSNGDKEDGRFTAQLNKASQYVSLLIRDSQPSDSATYLCAVNMRGGGSNYKLTFGKGTLLTVNP V domain 2: EPEVTQTPSHQVTQMGQEVILRCVPISNHLYFYWYRQILGQKVEFLVSFYNNEISEKSEIFDDQFSVERPDGSNFTLKIRSTKLEDSAMYFCAIASRVSYEQYFGPGTRLTVTE | 5.7 | 2.06 | 27.5 | 64.7
16 | TCR 46 (codon optimized, cysteine modified version) (TCR, V domains shown) V domain 1: AQSVTQLDSQVPVFEEAPVELRCNYSSSVSVYLFWYVQYPNQGLQLLLKYLSGSTLVKGINGFEAEFNKSQTSFHLRKPSVHISDTAEYFCAVSPSSGTYKYIFGTGTRLKVLA V domain 2: GAGVSQTPSNKVTEKGKYVELRCDPISGHTALYWYRQSLGQGPEFLIYFQGTGAADDSGLPNDRFFAVRPEGSVSTLKIQRTERGDSAVYLCASSLYLGGSETQYFGPGTRLLVLE | 1.27 | 1.21 | 38.9 | 58.6
